For test [1], the target named is CLAcrB_(P223G/V225C/A777C) (E. coli) (UniProt P31224). In words: cross-linking; inter-subunit disulfide trapping (C225–C777) in vivo: membrane vesicles from BW25113ΔacrB extracted in the presence of IAM, SDS-PAGE without DTT, Western blot with anti-AcrB. (In western blotting, separated proteins are transferred to a membrane and probed.)
Test [2] has the same target. As to the kind of experiment: native gel or EMSA; blue native (BN)-PAGE of freshly purified protein, 4–20% gradient gel, no DTT. A general note: In EMSA bound probe runs differently from free probe, usually more slowly.
Test [3] concerns the target wild type (WT) AcrB (E. coli) (UniProt P31224). The description is as above.

For “CLAcrB_(P223G/V225C/A777C) (from UniProt P31224 1-1049) (natural protein)”, the stoichiometry N in test [1] and in test [2] was 3 each time.
With “wild type (WT) AcrB (from UniProt P31224 1-1049) (natural protein)”, the stoichiometry N (usually the number of molecules, sites or subunits per partner or assembly) in test [3] stood at 3.

(Values after PMC3230630.)
